Assay [1] addresses T1, GST–Dpb11-N (BRCT1&2, aa 1–275) (S. cerevisiae, UniProt P47027 1-275).
T1 sequence (looked up): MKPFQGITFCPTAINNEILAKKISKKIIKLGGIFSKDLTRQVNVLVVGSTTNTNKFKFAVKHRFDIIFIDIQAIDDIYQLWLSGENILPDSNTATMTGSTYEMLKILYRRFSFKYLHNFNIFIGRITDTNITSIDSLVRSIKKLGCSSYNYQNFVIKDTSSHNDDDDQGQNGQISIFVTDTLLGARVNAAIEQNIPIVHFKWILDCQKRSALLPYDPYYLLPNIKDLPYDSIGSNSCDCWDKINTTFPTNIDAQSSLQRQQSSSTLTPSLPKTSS
In words: pull-down.

In assay [2] the target is immunopurified Mec1–18myc–Ddc2 (S. cerevisiae, UniProt P38111 1-2368; Q04377 1-747). The assay is described as follows: pull-down.

Square brackets hold non-standard residues; d marks the D form. Ends that are not written are not given here. * marks the point of attachment. Biotin = O=C1N[C@H]2[C@H](CS[C@H]2CCCCC(=O)*)N1; pT = C[C@@H](OP(=O)(O)O)[C@H](N)C(=O)O; pS = N[C@@H](COP(=O)(O)O)C(=O)O

Sequence of immunopurified Mec1–18myc–Ddc2 (P38111 whole entry, chain 1 of 2): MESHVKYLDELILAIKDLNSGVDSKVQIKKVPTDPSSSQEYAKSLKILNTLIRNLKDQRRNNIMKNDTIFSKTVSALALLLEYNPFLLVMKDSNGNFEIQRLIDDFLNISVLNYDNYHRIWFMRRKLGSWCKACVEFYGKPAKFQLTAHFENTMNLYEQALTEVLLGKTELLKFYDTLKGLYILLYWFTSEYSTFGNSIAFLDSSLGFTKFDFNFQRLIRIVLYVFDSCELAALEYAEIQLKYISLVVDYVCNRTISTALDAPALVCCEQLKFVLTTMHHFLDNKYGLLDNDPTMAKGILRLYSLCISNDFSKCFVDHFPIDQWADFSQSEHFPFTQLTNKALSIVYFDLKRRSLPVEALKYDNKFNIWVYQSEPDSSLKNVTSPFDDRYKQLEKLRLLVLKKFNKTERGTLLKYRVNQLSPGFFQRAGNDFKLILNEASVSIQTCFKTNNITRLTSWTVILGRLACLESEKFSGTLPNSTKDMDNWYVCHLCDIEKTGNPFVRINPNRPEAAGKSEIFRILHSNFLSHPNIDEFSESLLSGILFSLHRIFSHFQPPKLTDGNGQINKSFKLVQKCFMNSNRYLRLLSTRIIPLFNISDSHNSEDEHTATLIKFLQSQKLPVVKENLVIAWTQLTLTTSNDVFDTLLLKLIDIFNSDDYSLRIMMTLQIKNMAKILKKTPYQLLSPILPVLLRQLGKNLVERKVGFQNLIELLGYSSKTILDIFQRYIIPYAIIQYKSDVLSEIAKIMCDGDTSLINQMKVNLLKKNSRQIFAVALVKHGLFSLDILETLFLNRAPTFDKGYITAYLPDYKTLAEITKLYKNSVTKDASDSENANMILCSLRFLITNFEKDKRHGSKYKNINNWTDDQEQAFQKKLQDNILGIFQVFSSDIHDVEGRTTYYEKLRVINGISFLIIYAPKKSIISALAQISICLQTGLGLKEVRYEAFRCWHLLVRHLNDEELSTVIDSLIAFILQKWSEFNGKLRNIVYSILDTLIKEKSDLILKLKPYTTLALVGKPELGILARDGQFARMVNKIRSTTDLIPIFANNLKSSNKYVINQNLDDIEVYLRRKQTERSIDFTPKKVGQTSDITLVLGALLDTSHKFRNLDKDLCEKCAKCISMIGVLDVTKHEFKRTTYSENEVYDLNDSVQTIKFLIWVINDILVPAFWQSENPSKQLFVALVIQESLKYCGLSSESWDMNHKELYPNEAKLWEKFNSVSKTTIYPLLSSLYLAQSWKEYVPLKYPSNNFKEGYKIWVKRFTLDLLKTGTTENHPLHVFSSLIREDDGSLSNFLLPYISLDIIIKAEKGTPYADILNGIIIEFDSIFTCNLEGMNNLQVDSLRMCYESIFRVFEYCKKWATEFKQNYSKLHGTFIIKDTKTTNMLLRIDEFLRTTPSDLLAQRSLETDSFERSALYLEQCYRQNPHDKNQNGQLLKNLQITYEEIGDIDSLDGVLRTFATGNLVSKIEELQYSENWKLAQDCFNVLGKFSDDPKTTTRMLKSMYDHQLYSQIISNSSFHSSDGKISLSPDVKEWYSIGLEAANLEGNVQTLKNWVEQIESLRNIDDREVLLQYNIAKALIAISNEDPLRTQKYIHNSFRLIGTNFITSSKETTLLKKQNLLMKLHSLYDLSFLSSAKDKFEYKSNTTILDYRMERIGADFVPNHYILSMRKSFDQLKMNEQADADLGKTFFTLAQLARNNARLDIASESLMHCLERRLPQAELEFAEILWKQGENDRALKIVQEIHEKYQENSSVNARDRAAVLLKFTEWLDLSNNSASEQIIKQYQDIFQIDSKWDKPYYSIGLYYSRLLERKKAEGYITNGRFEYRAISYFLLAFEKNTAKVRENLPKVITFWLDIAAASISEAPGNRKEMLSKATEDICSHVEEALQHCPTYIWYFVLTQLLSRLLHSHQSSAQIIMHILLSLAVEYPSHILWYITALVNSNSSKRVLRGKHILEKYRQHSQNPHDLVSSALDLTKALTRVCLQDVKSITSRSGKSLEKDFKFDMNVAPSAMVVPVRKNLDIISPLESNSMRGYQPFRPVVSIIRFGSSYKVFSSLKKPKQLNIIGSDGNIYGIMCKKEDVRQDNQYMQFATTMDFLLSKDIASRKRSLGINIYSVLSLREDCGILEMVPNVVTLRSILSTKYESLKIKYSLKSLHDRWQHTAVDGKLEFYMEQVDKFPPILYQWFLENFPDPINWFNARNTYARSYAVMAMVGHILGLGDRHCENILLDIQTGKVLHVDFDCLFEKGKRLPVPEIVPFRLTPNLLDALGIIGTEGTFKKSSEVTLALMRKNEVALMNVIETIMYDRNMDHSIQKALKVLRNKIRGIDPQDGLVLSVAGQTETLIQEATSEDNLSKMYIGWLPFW
Sequence of immunopurified Mec1–18myc–Ddc2 (Q04377 whole entry, chain 2 of 2): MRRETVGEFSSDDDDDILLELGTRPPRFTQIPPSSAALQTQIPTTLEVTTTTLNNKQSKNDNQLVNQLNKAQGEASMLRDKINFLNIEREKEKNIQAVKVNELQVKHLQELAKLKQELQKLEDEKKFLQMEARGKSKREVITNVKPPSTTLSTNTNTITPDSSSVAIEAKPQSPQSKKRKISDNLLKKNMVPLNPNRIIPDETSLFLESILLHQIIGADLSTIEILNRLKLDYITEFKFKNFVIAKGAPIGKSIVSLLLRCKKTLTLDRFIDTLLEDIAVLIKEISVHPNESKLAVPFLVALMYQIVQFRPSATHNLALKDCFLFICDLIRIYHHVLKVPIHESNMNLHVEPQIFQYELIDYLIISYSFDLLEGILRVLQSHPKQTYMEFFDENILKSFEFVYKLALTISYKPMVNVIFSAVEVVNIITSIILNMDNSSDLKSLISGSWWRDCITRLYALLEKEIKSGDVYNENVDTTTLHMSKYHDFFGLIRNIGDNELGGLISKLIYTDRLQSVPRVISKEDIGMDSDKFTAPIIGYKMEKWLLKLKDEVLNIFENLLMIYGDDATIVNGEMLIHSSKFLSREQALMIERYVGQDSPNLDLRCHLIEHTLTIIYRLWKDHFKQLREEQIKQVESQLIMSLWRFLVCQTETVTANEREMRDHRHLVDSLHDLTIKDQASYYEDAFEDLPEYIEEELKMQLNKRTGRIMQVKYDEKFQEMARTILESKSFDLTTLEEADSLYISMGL

For {Biotin-EAhx}-GISAQKGPVFHSTGQTEEIKTQIIN[pS]PEQNALNAT (peptide, UniProt P14737 437-471, looked up) [Rad9 phospho-S462 peptide (biotinylated 35mer)], the binding result in assay [1] is recorded as “binds”.

With TGQTEEIKTQIINSPEQNALNATFE[pT]PVTLSRINF (peptide, UniProt P14737 449-483, looked up, not fully specified (residue 23, N-terminus)) [Rad9 phospho-T474 peptide (biotinylated 35mer)], the binding result in assay [1] is “binds”.

B1: recombinant, full-length, His-tagged Dpb11 (natural protein, S. cerevisiae, UniProt P47027 1-764, looked up)
chain: MKPFQGITFCPTAINNEILAKKISKKIIKLGGIFSKDLTRQVNVLVVGSTTNTNKFKFAVKHRFDIIFIDIQAIDDIYQLWLSGENILPDSNTATMTGSTYEMLKILYRRFSFKYLHNFNIFIGRITDTNITSIDSLVRSIKKLGCSSYNYQNFVIKDTSSHNDDDDQGQNGQISIFVTDTLLGARVNAAIEQNIPIVHFKWILDCQKRSALLPYDPYYLLPNIKDLPYDSIGSNSCDCWDKINTTFPTNIDAQSSLQRQQSSSTLTPSLPKTSSLLNKFKPKGEKIWDKAMSLQQHSKTNFSVLGQSPLSINNKQEDLSDNSTLIFKNCAFIIHHIFPGNHRSILTKIVVQNGGKIETSYLSGIYDHSYYIIPSNKALDSFNDLPEIIDDNDGIVTEFFIERCLYYQKLLHPIDLWSKPFLSTIEFQVSSSSKLLHHEFSSSPFLNVTITGFSGVELLHLTKVLNLLKPMGINYVEYLNKSTDILLINLAALPSIPKTHPLWSNEFSDLFTQFCINNNNDDPGDNNRKDFQNNSILRNSMKRKIEYIKKFHSIPVVTPAFIFKLLSAASGENNEIFLNNIKWCIICPRGHKDDFKCKIKKPYYTSISSEKKYQNNDPKIDKTILLKRNNSSLSEHSMKDTKNELLQKIRETDSGRKKRSVSSSIMDVSSERQMPDTKRIKLESLPKNFVPKQIKRTTSWGTIMSENVPTEQPTAISNPEEIPRTEEVSHTQVTYGSIQDKKRTASLEKPMRRQTRNQTKELDS
For B1, in assay [2], the binding result is recorded as “binds”.
